Results from patent US20060251646A1 (CELLACT PHARMA, published 2006).

B1: murine Neliximab (murine anti-human TIRC7 monoclonal antibody, clone #17) (antibody, V domains shown)
VH: EVQLQQSGPELVKPGASVKMSCKASGYTFTTYVMHWVKQKPGQGLEWIGYINPYNDGTNYNEKFKGKATLTSDKSSSTAYMELSTLTSEDSAVYYCAEFITKTVGGSNWYLDVWGAGTTVTVSS
VL: QIVLTQSPAIMSASPGEKVTMTCSASSSISYIHWFQQKPGTSPKRWIYDTSKLPSGVPARFSGSGSGTSYSLTISSMEAEDAATYYCHQRSSYTWTFGGGTKLEIKR
notes: also called murine anti-human TIRC7 mAb; murine mAb
B2: Neliximab (chimeric murine/human anti-human TIRC7 monoclonal antibody) (antibody, V domains shown)
VH: B1 VH
VL: QIVLTQSPAIMSASPGEKVTMTCSASSSISYIHWFQQKPGTSPKRWIYDTSKLPSGVPARFSGSGSGTSYSLTISSMEAEDAATYYCHQRSSYTWTFGGGTKLEIK
notes: also called chimeric Neliximab; chimeric anti-human TIRC7 mAb

Assays:
[1] = target: T1, peptide 6 (TIRC7 derived peptide DLPDASVNGWSSDE); assay: method not stated
T1 construct: Fragment of TIRC7, used coated on ELISA plates at 100 ng peptide/well; also called Peptid6
T1 peptide: DLPDASVNGWSSDE

[2] = target: human T-cell immune response cDNA 7 (TIRC7) protein (human, UniProt Q13488 1-830); assay: cell-based or functional assay
Sequence of human T-cell immune response cDNA 7 (TIRC7) protein (Q13488 whole entry): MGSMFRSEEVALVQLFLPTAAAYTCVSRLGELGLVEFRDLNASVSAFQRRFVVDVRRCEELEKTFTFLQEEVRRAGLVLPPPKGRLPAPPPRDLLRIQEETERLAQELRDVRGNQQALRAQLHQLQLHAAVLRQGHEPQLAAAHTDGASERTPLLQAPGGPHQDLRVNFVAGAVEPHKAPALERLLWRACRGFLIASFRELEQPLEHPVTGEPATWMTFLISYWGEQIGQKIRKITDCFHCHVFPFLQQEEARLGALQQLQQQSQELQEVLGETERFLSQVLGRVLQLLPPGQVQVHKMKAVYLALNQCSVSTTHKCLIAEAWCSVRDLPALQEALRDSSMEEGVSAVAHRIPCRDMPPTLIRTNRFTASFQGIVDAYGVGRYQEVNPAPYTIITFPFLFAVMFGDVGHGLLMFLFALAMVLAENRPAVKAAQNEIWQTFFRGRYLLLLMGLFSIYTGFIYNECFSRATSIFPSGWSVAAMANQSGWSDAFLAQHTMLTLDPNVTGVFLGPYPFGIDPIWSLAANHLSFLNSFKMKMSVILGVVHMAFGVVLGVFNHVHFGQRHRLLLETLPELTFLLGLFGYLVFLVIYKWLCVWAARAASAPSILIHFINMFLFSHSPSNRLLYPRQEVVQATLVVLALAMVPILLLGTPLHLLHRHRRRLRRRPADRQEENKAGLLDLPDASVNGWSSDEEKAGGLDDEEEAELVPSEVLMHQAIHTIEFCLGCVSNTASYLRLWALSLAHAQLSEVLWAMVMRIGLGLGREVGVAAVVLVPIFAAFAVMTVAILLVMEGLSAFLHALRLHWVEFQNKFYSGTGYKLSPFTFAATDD

Kd [1]	Inhibition of cytokine secretion (IFNγ) calculated relative to the isotype control at the same concentration, PHA-stimulated human PBMC, 10 µg/ml murine Neliximab [2]	Inhibition of cytokine secretion (IFNγ) calculated relative to the isotype control at the same concentration, PHA-stimulated human PBMC, 50 µg/ml murine Neliximab [2]	Inhibition of cytokine secretion (IFNγ) calculated relative to the isotype control at the same concentration, PHA-stimulated human PBMC, 100 µg/ml murine Neliximab [2]	Inhibition of cytokine secretion (IFNγ) calculated relative to the isotype control at the same concentration, PHA-stimulated human PBMC, 200 µg/ml murine Neliximab [2]	Binder
1 nM	78%	39%	20%	3%	B1
1 nM					B2
